Residue numbers refer to the chain shown, from its start.
T1: mouse MAdCAM expressed on cells (mouse, UniProt Q61826 22-405)
T1 construct: whole, on cells
T1 sequence (looked up): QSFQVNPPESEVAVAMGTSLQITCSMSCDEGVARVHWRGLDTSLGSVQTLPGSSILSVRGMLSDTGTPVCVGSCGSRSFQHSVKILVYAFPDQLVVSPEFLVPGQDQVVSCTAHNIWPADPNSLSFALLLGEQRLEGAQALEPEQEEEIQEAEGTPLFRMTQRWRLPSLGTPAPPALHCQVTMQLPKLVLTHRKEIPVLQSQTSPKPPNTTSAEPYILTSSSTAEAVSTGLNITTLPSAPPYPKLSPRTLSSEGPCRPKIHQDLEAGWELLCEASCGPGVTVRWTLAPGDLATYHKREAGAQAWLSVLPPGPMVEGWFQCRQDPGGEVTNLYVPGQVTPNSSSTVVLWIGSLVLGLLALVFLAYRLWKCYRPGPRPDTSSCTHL

T2: human MAdCAM expressed on cells (human, UniProt Q13477 19-382)
T2 construct: whole, on cells; also called MADCAM1
T2 sequence (looked up): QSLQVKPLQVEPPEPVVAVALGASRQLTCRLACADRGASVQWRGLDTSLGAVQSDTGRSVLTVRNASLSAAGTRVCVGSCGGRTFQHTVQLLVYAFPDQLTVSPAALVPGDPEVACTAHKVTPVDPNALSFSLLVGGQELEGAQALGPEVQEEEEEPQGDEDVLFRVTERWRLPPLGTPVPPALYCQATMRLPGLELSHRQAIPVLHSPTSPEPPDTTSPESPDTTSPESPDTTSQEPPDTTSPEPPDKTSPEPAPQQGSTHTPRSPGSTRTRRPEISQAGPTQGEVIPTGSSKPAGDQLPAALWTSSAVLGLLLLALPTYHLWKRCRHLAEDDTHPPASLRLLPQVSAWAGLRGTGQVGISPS

B1: MAdCAM Antibody Table 2 Clone 57 (antibody, human IgG1, V domains shown)
VH: EVQLLESGGGLVQPGGSLRLSCAASGFSVSSNYMSWVRQAPGKGLEWVAGISYDGSSKPYADSVKGRFTISRDNSKNTLYLQMNSLRAEDTAVYYCARSRGIAARPLQHWGQGTLVTVSS
VL: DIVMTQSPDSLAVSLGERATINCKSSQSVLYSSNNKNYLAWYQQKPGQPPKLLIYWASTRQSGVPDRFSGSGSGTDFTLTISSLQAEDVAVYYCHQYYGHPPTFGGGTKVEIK
B2: MAdCAM Antibody Table 2 Clone 58 (antibody, human IgG1, V domains shown)
VH: B1 VH
VL: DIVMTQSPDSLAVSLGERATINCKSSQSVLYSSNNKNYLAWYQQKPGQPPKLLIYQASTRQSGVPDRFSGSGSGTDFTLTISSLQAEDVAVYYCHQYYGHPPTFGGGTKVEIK
B3: MAdCAM Antibody Table 2 Clone 66 (antibody, human IgG1, V domains shown)
VH: QVQLVQSGAEVKKPGASVKVSCKASGYTFTGHYMHWVRQAPGQGLEWMGIINPSGGSTSYAQKFQGRVTMTRDTSTSTVYMELSSLRSEDTAVYYCARDGAWFGEEYYYGMDVWGQGTTVTVSS
VL: DIQMTQSPSSLSASVGDRVTITCRASQGISNWLAWYQQKPGKAPKLLIYDASNLETGVPSRFSGSGSGTDFTLTISSLQPEDFATYYCQQYYSFPLYTFGQGTKVEIK
B4: MAdCAM Antibody Table 2 Clone 79 (antibody, human IgG1, V domains shown)
VH: EVQLLESGGGLVKPGGSLRLSCAASGFTFDDYAMHWVRQAPGKGLEWVASITSSSAFIDYAASVKGRFTISRDDSKNTLYLQMNSLKTEDTAVYYCARERVDWNSYFDLWGRGTLVTVSS
VL: EIVMTQSPATLSVSPGERATLSCRASQGISNSYLAWYQQKPGQAPRLLIYGASTRATGIPARFSGSGSGTEFTLTISSLQSEDFAVYYCQQYYTYPPTFGPGTKVDIK
B5: MAdCAM Antibody Table 2 Clone 62 (antibody, human IgG1, V domains shown)
VH: QVQLVQSGAEVKKPGASVKVSCKASGYTFTSYDINWVRQAPGQGLEWMGWINPNSGTTGYAQKFQGRVTMTRDTSTSTVYMELSSLRSEDTAVYYCARSPYYYYGMDVWGQGTTVTVSS
VL: DIQMTQSPSSLSASVGDRVTITCRASHFISRWVAWYQQKPGKAPKLLIYAASTLQSGVPSRFSGSGSGTDFTLTISSLQPEDFATYYCQQSYSGISFGPGTKVDIK
B6: MAdCAM Antibody Table 2 Clone 64 (antibody, human IgG1, V domains shown)
VH: EVQLLESGGGLVQPGGSLRLSCAASGFTFSNSDMNWVRQAPGKGLEWVAHIWNDGSQKYYADSVKGRFTISRDNSKNTLYLQMNSLRAEDTAVYYCARDRTDPGYSSAMDVWGQGTTVTVSS
VL: DIQMTQSPSSLSASVGDRVTITCRASQDIRNYLGWYQQKPGKAPKLLIYDASSLETGVPSRFSGSGSGTDFTLTISSLQPEDFATYYCQQATSLPLTFGGGTKVEIK
B7: MAdCAM Antibody Table 2 Clone 73 (antibody, human IgG1, V domains shown)
VH: QVQLVQSGAEVKKPGASVKVSCKASGYTFTSNYVHWVRQAPGQGLEWMGRINPHSGDTSYAQKFQGRVTMTRDTSTSTVYMELSSLRSEDTAVYYCARAGQLWSDWYFDLWGRGTLVTVSS
VL: B6 VL with R24Q, G34N, D50A, S52T, S53A, E55R, A91S, T92Y, L94H, G100Q
B8: MAdCAM Antibody Table 2 Clone 63 (antibody, human IgG1, V domains shown)
VH: EVQLLESGGGLVQPGGSLRLSCAASGFTFNNYGMNWVRQAPGKGLEWVSRINSDGSSTSYADSVKGRFTISRDNSKNTLYLQMNSLRAEDTAVYYCARGAYYYYYMDVWGQGTLVTVSS
VL: EIVMTQSPATLSVSPGERATLSCRASQSVSGSYLAWYQQKPGQAPRLLIYATSSRASGIPARFSGSGSGTEFTLTISSLQSEDFAVYYCQQYYSGLTFGQGTKVEIK
B9: MAdCAM Antibody Table 2 Clone 61 (antibody, human IgG1, V domains shown)
VH: QVQLVQSGAEVKKPGASVKVSCKASGDTFTGYYIHWVRQAPGQGLEWMGWINPNSGGTNYAQKFQGRVTMTRDTSTSTVYMELSSLRSEDTAVYYCARSGLWLGSYYGMDVWGQGTLVTVSS
VL: DIQMTQSPSSLSASVGDRVTITCRASQTISIWLAWYQQKPGKAPKLLIYDASTLQSGVPSRFSGSGSGTDFTLTISSLQPEDFATYYCQQYSSYPLTFGQGTKVEIK
B10: MAdCAM Antibody Table 2 Clone 75 (antibody, human IgG1, V domains shown)
VH: EVQLLESGGGLVQPGGSLRLSCAASGFTFSDFWMHWVRQAPGKGLEWISYISGDSGYTNYADSVKGRFTISRDNSKNTLYLQMNSLRAEDTAVYYCARDRPYYYYMDVWGKGTTVTVSS
VL: B9 VL with T28S, I29V, I31R, W32S, D50A, T53S, S92K, L96V
B11: MAdCAM Antibody Table 2 Clone 76 (antibody, human IgG1, V domains shown)
VH: EVQLLESGGGLVQPGGSLRLSCAASGFTFDDYTMHWVRQAPGKGLEWVSDISGSGGSTYYADSVKGRFTISRDNSKNTLYLQMNSLRAEDTAVYYCAKDVVVAGTPLHFDYWGQGTLVTVSS
VL: DIQMTQSPSSLSASVGDRVTITCQASQDISNYLNWYQQKPGKAPKLLIYAASYLQSGVPSRFSGSGSGTDFTLTISSLQPEDFATYYCQQAHNYPITFGQGTRLEIK
B12: MAdCAM Antibody Table 2 Clone 77 (antibody, human IgG1, V domains shown)
VH: EVQLLESGGGLVQPGGSLRLSCAASEFTFSNAWMSWVRQAPGKGLEWVASISSTSAYIDYADSVKGRFTISRDNSKNTLYLQMNSLRAEDTAVYYCAREVVGATTFDYWGQGTLVTVSS
VL: B11 VL with Q24R, D28S, N31T, Y32W, N34A, Y53S, H92N, N93A, Y94F, I96P
B13: MAdCAM Antibody Table 2 Clone 60 (antibody, human IgG1, V domains shown)
VH: EVQLLESGGGLVQPGGSLRLSCAASGFTFSDHGMHWVRQAPGKGLEWVSVIYGGESTYYADSVKGRFTISRDNSKNTLYLQMNSLRAEDTAVYYCARDPAVAGGGIFDYWGQGTLVTVSS
VL: DIQMTQSPSSLSASVGDRVTITCRASQGISNYLAWYQQKPGKAPKLLIYDASNLETGVPSRFSGSGSGTDFTLTISSLQPEDFATYYCQQSYSTCYTFGQGTKLEIK
B14: MAdCAM Antibody Table 2 Clone 69 (antibody, human IgG1, V domains shown)
VH: QVQLVQSGAEVKKPGASVKVSCKASGYTFTSYYMHWVRQAPGQGLEWMGIIDPSGGSTSYAQKFQGRVTMTRDTSTSTVYMELSSLRSEDTAVYYCAREEWSSGGVGYFDYWGQGTLVTVSS
VL: B13 VL with N31S, D50A, A51T, N53S, E55Q, S91T, T94I, C95P, Y96I, K103R
B15: MAdCAM Antibody Table 2 Clone 72 (antibody, human IgG1, V domains shown)
VH: QVQLVQSGAEVKKPGASVKVSCKASGYTFTSYYMHWVRQAPGQGLEWMGVINPIGGTTTYAQKFQGRVTMTRDTSTSTVYMELSSLRSEDTAVYYCASGAPSYYYYGMDVWGQGTLVTVSS
VL: B13 VL with G28S, N31S, A34N, D50G, A51T, N53Y, E55A, C95P, Y96L, L104V
B16: MAdCAM Antibody Table 2 Clone 70 (antibody, human IgG1, V domains shown)
VH: QVQLVQSGAEVKKPGASVKVSCKASGYPFTDYYMHWVRQAPGQGLEWMGWIKPNSGDTEYAQKFQGRVTMTRDTSTSTVYMELSSLRSEDTAVYYCARDRFVGKPDYYYYGMDVWGQGTMVTVSS
VL: B13 VL with G28S, N31V, Y32W, D50A, N53S, E55Q, T56S, S93D, C95P
B17: MAdCAM Antibody Table 2 Clone 71 (antibody, human IgG1, V domains shown)
VH: QVQLVQSGAEVKKPGASVKVSCKASGYTFTSYYMHWVRQAPGQGLEWMGIINPSGGSTSYAQKFQGRVTMTRDTSTSTVYMELSSLRSEDTAVYYCARDSVAGTGGRYYGMDVWGQGTLVTVSS
VL: B13 VL with L33F, D50A, N53S, E55Q, T56G, T94L, C95P
B18: MAdCAM Antibody Table 2 Clone 67 (antibody, human IgG1, V domains shown)
VH: QVQLVQSGAEVKKPGASVKVSCKASGYTFTGYYMHWVRQAPGQGLEWMGMIYPRDGSTSYAQKFQGRVTMTRDTSTSTVYMELSSLRSEDTAVYYCAMTGWGYGMDVWGKGTTVTVSS
VL: B13 VL with S30N, N53T, E55Q, T56S, T94A, C95P, Y96P
B19: MAdCAM Antibody Table 2 Clone 68 (antibody, human IgG1, V domains shown)
VH: EVQLLESGGGLVQPGGSLRLSCAASGFTFGDYAMSWVRQAPGKGLEWVAVVSYDGTNKYYADSVKGRFTISRDNSKNTLYLQMNSLRAEDTAVYYCAKDICSSTSCYFDLWGRGTLVTVSS
VL: B13 VL with G28N, S30N, L33V, A34N, S91A, Y92N, T94F, C95P, Y96P, K103R
B20: MAdCAM Antibody Table 2 Clone 78 (antibody, V domains shown)
VH: QVQLVQSGAEVKKPGSSVKVSCKASGGTFSSYAISWVRQAPGQGLEWMGWMEPHTGNTRYAQKFQGRVTITADESTSTAYMELSSLRSEDTAVYYCAKGGFSWFDPWGQGTLVTVSS
VL: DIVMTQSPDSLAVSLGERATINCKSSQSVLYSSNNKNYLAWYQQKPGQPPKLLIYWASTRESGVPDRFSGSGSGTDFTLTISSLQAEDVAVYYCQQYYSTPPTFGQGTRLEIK

Assays:
[1] = molecular target: T1, mouse MAdCAM expressed on cells; assay: cell binding
[2] = molecular target: T2, human MAdCAM expressed on cells; assay: cell binding

Binder | binding result [1] | binding result [2]
B1 | no binding | binds
B2 | no binding | binds
B3 | no binding | binds
B4 | binds | binds
B5 | no binding | binds
B6 | no binding | binds
B7 | no binding | binds
B8 | no binding | binds
B9 | no binding | binds
B10 | binds | binds
B11 | binds | binds
B12 | binds | binds
B13 | binds | binds
B14 | no binding | binds
B15 | no binding | binds
B16 | no binding | binds
B17 | no binding | binds
B18 | no binding | binds
B19 | no binding | binds
B20 | binds | binds

From US20210206856A1 (PANDION OPERATIONS, published 2021)
